According to article PMC5814804:
Where two headings read alike, the source gives them in different places.

How the values were obtained:
[1] = target: Thermotoga maritima TsaB2D2 complex (Thermotoga maritima) (UniProt Q9WZX7); assay: ITC
[2] = target: Thermotoga maritima TsaB2D2 complex (Thermotoga maritima) (UniProt Q9WZX7); assay: ITC; remark: listed apart in the source
[3] = target: Thermotoga maritima TsaB2D2 complex (Thermotoga maritima) (UniProt Q9WZX7); assay: ITC; remark: listed apart in the source
[4] = target: Thermotoga maritima TsaB2D2 complex (Thermotoga maritima) (UniProt Q9WZX7); assay: SEC
[5] = target: Thermotoga maritima TsaB2D2 complex (Thermotoga maritima) (UniProt Q9WZX7); assay: SEC; remark: listed apart in the source

Sequence of Thermotoga maritima TsaB2D2 complex (Thermotoga maritima) (Q9WZX7 whole entry, chain 1 of 2): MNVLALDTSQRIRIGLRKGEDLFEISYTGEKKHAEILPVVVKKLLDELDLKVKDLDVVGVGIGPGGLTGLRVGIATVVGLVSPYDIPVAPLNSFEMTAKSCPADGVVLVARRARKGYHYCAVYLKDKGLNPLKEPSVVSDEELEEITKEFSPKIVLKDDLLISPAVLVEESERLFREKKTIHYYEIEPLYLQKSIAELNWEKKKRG
Sequence of Thermotoga maritima TsaB2D2 complex (Thermotoga maritima) (Q9WXZ2 whole entry, chain 2 of 2, further chain): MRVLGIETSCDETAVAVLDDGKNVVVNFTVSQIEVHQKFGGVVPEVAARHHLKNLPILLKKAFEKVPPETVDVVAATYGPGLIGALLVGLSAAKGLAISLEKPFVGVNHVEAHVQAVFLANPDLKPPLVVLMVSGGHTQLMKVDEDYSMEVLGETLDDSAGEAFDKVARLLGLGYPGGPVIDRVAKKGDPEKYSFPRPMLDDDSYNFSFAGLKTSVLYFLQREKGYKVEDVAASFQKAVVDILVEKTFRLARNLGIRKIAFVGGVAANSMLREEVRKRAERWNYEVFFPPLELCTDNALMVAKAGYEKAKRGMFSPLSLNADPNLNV

Substance | Kd [1] [nM] | dH [1] [kcal/mol] | stoichiometry N [1] | Kd [2] [nM] | dH [2] [kcal/mol] | stoichiometry N [2] | Kd [3] [nM] | dH [3] [kcal/mol] | stoichiometry N [3] | stoichiometry N (TsaE per TsaB2D2) [4] | stoichiometry N (TsaE per TsaB2D2) [5]
Thermotoga maritima TsaE (natural protein) | 1100 | 1.54 | 2.16 | 340 | 7.44 | 2.72 | 1300 | 11.9 | 2.11 | 1 | 2
Thermotoga maritima TsaE E108A mutant (natural protein) | – | – | – | 2400 | 11.9 | 1.91 | 1100 | 9.3 | – | – | –
Thermotoga maritima TsaE T42A mutant (natural protein) | – | – | – | 1100 | 10.3 | 2 | 1400 | 8 | – | – | –
